In patent publication US20070105796A1:

Biological target: TERT (telomerase reverse transcriptase), catalytic subunit of telomerase (human) (UniProt O14746)
Assay: cell-based or functional assay

Chain of TERT (telomerase reverse transcriptase), catalytic subunit of telomerase (human) (O14746 whole entry): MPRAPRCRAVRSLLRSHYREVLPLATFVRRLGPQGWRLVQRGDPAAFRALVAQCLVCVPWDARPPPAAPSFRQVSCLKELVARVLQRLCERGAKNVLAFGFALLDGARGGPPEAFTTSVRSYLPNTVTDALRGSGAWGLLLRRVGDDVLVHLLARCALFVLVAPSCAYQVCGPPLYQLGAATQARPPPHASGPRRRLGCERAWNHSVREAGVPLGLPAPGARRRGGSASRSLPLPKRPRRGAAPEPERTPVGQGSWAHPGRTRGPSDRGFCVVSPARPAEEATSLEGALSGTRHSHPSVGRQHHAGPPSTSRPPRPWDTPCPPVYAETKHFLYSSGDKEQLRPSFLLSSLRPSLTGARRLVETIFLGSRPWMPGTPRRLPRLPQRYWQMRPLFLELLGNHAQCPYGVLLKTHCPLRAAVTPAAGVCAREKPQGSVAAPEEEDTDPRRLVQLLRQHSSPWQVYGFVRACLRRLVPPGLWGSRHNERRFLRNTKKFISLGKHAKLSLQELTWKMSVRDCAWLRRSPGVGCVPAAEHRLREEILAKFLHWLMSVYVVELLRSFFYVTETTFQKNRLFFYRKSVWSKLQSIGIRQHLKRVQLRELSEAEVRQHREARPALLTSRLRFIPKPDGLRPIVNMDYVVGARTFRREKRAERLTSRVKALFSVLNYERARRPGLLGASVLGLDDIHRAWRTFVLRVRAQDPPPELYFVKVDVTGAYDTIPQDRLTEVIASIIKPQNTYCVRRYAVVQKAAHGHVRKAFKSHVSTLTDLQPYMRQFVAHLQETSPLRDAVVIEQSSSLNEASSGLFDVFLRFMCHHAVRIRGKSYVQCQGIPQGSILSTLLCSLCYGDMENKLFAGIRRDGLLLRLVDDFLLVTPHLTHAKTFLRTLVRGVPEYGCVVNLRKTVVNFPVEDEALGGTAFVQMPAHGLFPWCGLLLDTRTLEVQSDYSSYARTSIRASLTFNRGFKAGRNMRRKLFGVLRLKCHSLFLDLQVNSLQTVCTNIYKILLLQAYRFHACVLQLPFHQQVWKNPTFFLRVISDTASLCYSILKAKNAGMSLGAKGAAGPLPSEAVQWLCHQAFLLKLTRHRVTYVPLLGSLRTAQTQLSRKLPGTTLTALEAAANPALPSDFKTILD

**Q.** How did the telomerase activity (TRAP method) in dephosphorylated HEK293 cell nuclear extract after phosphorylation reaction turn out when “GST fusion active MAPKAPK3 (T201E/T313E) (from UniProt Q16644 1-382) (enzyme)” was run?
**A.** 1.5 fold

**Q.** How did the intracellular telomerase activity (TRAP method) in HEK293T cells against the negative control vector turn out when “N-terminal HA-tagged active MAPKAPK3 (T201E/T313E) (from UniProt Q16644 1-382) (enzyme)” was run?
**A.** 1.4 fold

**Q.** Which intracellular telomerase activity (TRAP method) in HEK293T cells does the source give for “N-terminal HA-tagged inactive MAPKAPK3 (T201A/T313A) (from UniProt Q16644 1-382) (enzyme)” here?
**A.** 0.7 fold
